Measured values published in the MegaScale stability set (Tsuboyama et al. 2023).

B1: r11_951_TrROS_Hall (parent)
chain: KKKYVIKVYFEDTGKEVEIEAESKEEALEAAKRLAEELGLKIKKVEIYP

Variants of: B1
Test: folding stability dG (cDNA display proteolysis); higher = more stable
Details: PBS, room temperature

Folding stability dG [kcal/mol], by site and new letter:
K2: H 4.51; D 3.85; W 4.66; G 4.29; S 4.52; V 4.34; N 4.24; Q 4.34; Y 4.42; F 4.57; E 4.29; A 4.43; T 4.46; M 4.59; P 3.73
V5: T 4.47; R 4.66; K 4.63; F 4.42; G 3.95; I 4.29; W 4.62; H 4.32; Q 4.27; Y 4.37; N 4.12; C 3.83; A 4.35; S 4.3; E 3.42; L 4.13; P 2.38; D 3; M 4.31
K1: N 4.47; W 4.38; F 4.54; I 4.6; G 4.64; R 4.71; A 4.25; P 4.64; S 4.25; Y 4.52; D 4.22; Q 4.6; C 4.57; H 4.46; T 4.5; L 4.52; V 4.51; E 4.16; M 4.8
I6: C 3.63; R 0.95; P -0.197; Q 1.59; S 3.42; K 0.69; F 4.55; E 1.26; T 3.59; V 4.06; N 1.53; L 4.34; A 4.12; G 3.82; W 4.67; D 0.044; M 4.46; H 2.82; Y 4.79
K3: V 4.24; N 4.11; T 4.4; L 4.63; F 4.64; M 4.59; E 3.9; S 4.52; P 4.49; Y 4.54; A 4.46; I 4.27; W 4.83; Q 4.28; H 4.39; R 4.26; G 4.03; C 4.24; D 3.86
Y4: R 2.98; V 4.58; P 2.44; M 3.98; T 3.74; L 3.93; G 2.47; F 4.2; E 2.73; H 3.58; Q 3.55; D 2.33; C 3.85; N 2.92; W 4.31; I 4.29; K 2.9; S 3.36; A 3.08
V8: N 1.36; E 0.978; F 4.61; W 4.03; C 3.91; T 2.91; P 0.881; Q 1.52; H 1.38; D 1.26; M 4.28; R 0.173; G 2.51; A 3.59; L 4.25; I 4.47; S 1.87; Y 4.22; K 0.16
K7: P 1.45; I 4.11; R 4.64; N 3.9; A 3.95; S 3.73; T 4.07; Q 3.75; L 4.09; G 3.32; E 3.12; D 2.75; C 3.91; W 4.45; F 4.21; H 4.19; Y 4.13; V 4.1; M 4.1
Y9: A 3.91; L 4.26; T 4.22; Q 4.09; I 4.35; S 4.16; H 4.26; F 4.25; K 3.98; N 3.87; W 4.86; P 1.42; R 4.14; C 3.95; M 4.4; D 3.41; E 4.28; V 4.3; G 3.74
